Measured values published in patent publication US10400230B2, “Protease variants and polynucleotides encoding same” (NOVOZYMES A/S, priority 2014, dated 2019).
Where “and” joins values, the source holds several entries; their conditions need not be identical. Equal entries are not always repeated.

B1: S27K, I150N, S171N, S173P, G174R, S175P, F180Y, Q198, ET297P: TY145 protease (SEQ ID NO 3) variant with these substitutions (protein, listed as Bacillus sp.)
chain: AVPSTQTPWGIKSIYNDQSITKTTGGKGIKVAVLDTGVYTSHLDLAGSAEQCKDFTQSNPLVDGSCTDRQGHGTHVAGTVLAHGGSNGQGVYGVAPQAKLWAYKVLGDNGSGYSDDIAAAIRHVADEASRTGSKVVINMSLGSSAKDSLNASAVDYAYGKGVLIVAAAGNNGPRPNTIGYPGGLVNAVAVAALENVQENGTYRVADFSSRGNPATAGDYIIQERDIEVSAPGASVESTWYTGGYNTISGTSMATPHVAGLAAKIWSANTSLSHSQLRTELQNRAKVYDIKGGIGAGPGDDYASGFGYPRVK
B2: S173P, S175P, N176Y, F180Y: TY145 protease (SEQ ID NO 3) variant with these substitutions (protein, listed as Bacillus sp.)
chain: AVPSTQTPWGIKSIYNDQSITKTTGGSGIKVAVLDTGVYTSHLDLAGSAEQCKDFTQSNPLVDGSCTDRQGHGTHVAGTVLAHGGSNGQGVYGVAPQAKLWAYKVLGDNGSGYSDDIAAAIRHVADEASRTGSKVVINMSLGSSAKDSLIASAVDYAYGKGVLIVAAAGNSGPGPYTIGYPGGLVNAVAVAALENVQQNGTYRVADFSSRGNPATAGDYIIQERDIEVSAPGASVESTWYTGGYNTISGTSMATPHVAGLAAKIWSANTSLSHSQLRTELQNRAKVYDIKGGIGAGTGDDYASGFGYPRVK
B3: S173P, S175P, I178P, F180Y: TY145 protease (SEQ ID NO 3) variant with these substitutions (protein, listed as Bacillus sp.)
chain: AVPSTQTPWGIKSIYNDQSITKTTGGSGIKVAVLDTGVYTSHLDLAGSAEQCKDFTQSNPLVDGSCTDRQGHGTHVAGTVLAHGGSNGQGVYGVAPQAKLWAYKVLGDNGSGYSDDIAAAIRHVADEASRTGSKVVINMSLGSSAKDSLIASAVDYAYGKGVLIVAAAGNSGPGPNTPGYPGGLVNAVAVAALENVQQNGTYRVADFSSRGNPATAGDYIIQERDIEVSAPGASVESTWYTGGYNTISGTSMATPHVAGLAAKIWSANTSLSHSQLRTELQNRAKVYDIKGGIGAGTGDDYASGFGYPRVK
B4: S173P, S175P, I178Y, F180Y: TY145 protease (SEQ ID NO 3) variant with these substitutions (protein, listed as Bacillus sp.)
chain: AVPSTQTPWGIKSIYNDQSITKTTGGSGIKVAVLDTGVYTSHLDLAGSAEQCKDFTQSNPLVDGSCTDRQGHGTHVAGTVLAHGGSNGQGVYGVAPQAKLWAYKVLGDNGSGYSDDIAAAIRHVADEASRTGSKVVINMSLGSSAKDSLIASAVDYAYGKGVLIVAAAGNSGPGPNTYGYPGGLVNAVAVAALENVQQNGTYRVADFSSRGNPATAGDYIIQERDIEVSAPGASVESTWYTGGYNTISGTSMATPHVAGLAAKIWSANTSLSHSQLRTELQNRAKVYDIKGGIGAGTGDDYASGFGYPRVK
B5: S27K, K146P, S148R, A151R, S171N, S173P, G174R, S175P, F180Y, Q198E, N199K, T297P: TY145 protease (SEQ ID NO 3) variant with these substitutions (protein, listed as Bacillus sp.)
chain: AVPSTQTPWGIKSIYNDQSITKTTGGKGIKVAVLDTGVYTSHLDLAGSAEQCKDFTQSNPLVDGSCTDRQGHGTHVAGTVLAHGGSNGQGVYGVAPQAKLWAYKVLGDNGSGYSDDIAAAIRHVADEASRTGSKVVINMSLGSSAPDRLIRSAVDYAYGKGVLIVAAAGNNGPRPNTIGYPGGLVNAVAVAALENVQEKGTYRVADFSSRGNPATAGDYIIQERDIEVSAPGASVESTWYTGGYNTISGTSMATPHVAGLAAKIWSANTSLSHSQLRTELQNRAKVYDIKGGIGAGPGDDYASGFGYPRVK
B6: S173P, S175P, I178F, F180Y: TY145 protease (SEQ ID NO 3) variant with these substitutions (protein, listed as Bacillus sp.)
chain: AVPSTQTPWGIKSIYNDQSITKTTGGSGIKVAVLDTGVYTSHLDLAGSAEQCKDFTQSNPLVDGSCTDRQGHGTHVAGTVLAHGGSNGQGVYGVAPQAKLWAYKVLGDNGSGYSDDIAAAIRHVADEASRTGSKVVINMSLGSSAKDSLIASAVDYAYGKGVLIVAAAGNSGPGPNTFGYPGGLVNAVAVAALENVQQNGTYRVADFSSRGNPATAGDYIIQERDIEVSAPGASVESTWYTGGYNTISGTSMATPHVAGLAAKIWSANTSLSHSQLRTELQNRAKVYDIKGGIGAGTGDDYASGFGYPRVK
B7: S27K, S171N, S173P, G174R, S175P, F180Y, L184F, Q198E, T297P: TY145 protease (SEQ ID NO 3) variant with these substitutions (protein, listed as Bacillus sp.)
chain: AVPSTQTPWGIKSIYNDQSITKTTGGKGIKVAVLDTGVYTSHLDLAGSAEQCKDFTQSNPLVDGSCTDRQGHGTHVAGTVLAHGGSNGQGVYGVAPQAKLWAYKVLGDNGSGYSDDIAAAIRHVADEASRTGSKVVINMSLGSSAKDSLIASAVDYAYGKGVLIVAAAGNNGPRPNTIGYPGGFVNAVAVAALENVQENGTYRVADFSSRGNPATAGDYIIQERDIEVSAPGASVESTWYTGGYNTISGTSMATPHVAGLAAKIWSANTSLSHSQLRTELQNRAKVYDIKGGIGAGPGDDYASGFGYPRVK
B8: S27K, I121V, S171N, S173P, G174R, S175P, F180Y, L184F, Q198E, T297P: TY145 protease (SEQ ID NO 3) variant with these substitutions (protein, listed as Bacillus sp.)
chain: AVPSTQTPWGIKSIYNDQSITKTTGGKGIKVAVLDTGVYTSHLDLAGSAEQCKDFTQSNPLVDGSCTDRQGHGTHVAGTVLAHGGSNGQGVYGVAPQAKLWAYKVLGDNGSGYSDDIAAAVRHVADEASRTGSKVVINMSLGSSAKDSLIASAVDYAYGKGVLIVAAAGNNGPRPNTIGYPGGFVNAVAVAALENVQENGTYRVADFSSRGNPATAGDYIIQERDIEVSAPGASVESTWYTGGYNTISGTSMATPHVAGLAAKIWSANTSLSHSQLRTELQNRAKVYDIKGGIGAGPGDDYASGFGYPRVK
B9: S173P, S175P, F180Y, L184F: TY145 protease (SEQ ID NO 3) variant with these substitutions (protein, listed as Bacillus sp.)
chain: AVPSTQTPWGIKSIYNDQSITKTTGGSGIKVAVLDTGVYTSHLDLAGSAEQCKDFTQSNPLVDGSCTDRQGHGTHVAGTVLAHGGSNGQGVYGVAPQAKLWAYKVLGDNGSGYSDDIAAAIRHVADEASRTGSKVVINMSLGSSAKDSLIASAVDYAYGKGVLIVAAAGNSGPGPNTIGYPGGFVNAVAVAALENVQQNGTYRVADFSSRGNPATAGDYIIQERDIEVSAPGASVESTWYTGGYNTISGTSMATPHVAGLAAKIWSANTSLSHSQLRTELQNRAKVYDIKGGIGAGTGDDYASGFGYPRVK
B10: S27K, Q70N, G107N, I121V, E127Q, S173P, S175P, F180Y, L184F, Q198E, T297P: TY145 protease (SEQ ID NO 3) variant with these substitutions (protein, listed as Bacillus sp.)
chain: AVPSTQTPWGIKSIYNDQSITKTTGGKGIKVAVLDTGVYTSHLDLAGSAEQCKDFTQSNPLVDGSCTDRNGHGTHVAGTVLAHGGSNGQGVYGVAPQAKLWAYKVLNDNGSGYSDDIAAAVRHVADQASRTGSKVVINMSLGSSAKDSLIASAVDYAYGKGVLIVAAAGNSGPGPNTIGYPGGFVNAVAVAALENVQENGTYRVADFSSRGNPATAGDYIIQERDIEVSAPGASVESTWYTGGYNTISGTSMATPHVAGLAAKIWSANTSLSHSQLRTELQNRAKVYDIKGGIGAGPGDDYASGFGYPRVK

Experiment: Determination of binding constants of inhibitor (NNIC) in Model B detergent, Suc-AAPF-pNA read-out
Type: biochemical
Conditions: Ki of variant with the mutation relative to variant without the mutation, <1.0 beneficial
Procedure: Purified protease variants are pre-diluted to approximately 0.2 mg/ml in dilution buffer. 40 μl diluted protease is then mixed with 40 μl inhibitor solution (Z-Gly-Ala-NHCH(CH2C6H4pOH)C(OH)(SO3Na)—H, wherein Z is benzyloxycarbonyl) or 40 μl 4-FPBA solution in the well of a 96 well microtiter plate (Nunc F 96-MTP). […] After 10 min mixing of protease and inhibitor at room temperature, 30 μl of the mixture is transferred to a microtiter plate (Nunc U96 PP 0.5 ml) with 270 μl Model B detergent in the wells resulting in inhibitor concentrations of 0-30 μM and 4-FPBA concentrations of 0-6000 μM. Protease, inhibitor and detergent is mixed for 1 hour using magnetic bars for 1 hour at room temperature to reach equilibrium. Then 20 μl is transferred to a microtiter plate (Nunc F 96-MTP). 100 μl substrate solution is added and after 5 sec mixing absorbance at 405 nm is measured every 20 sec for 5 min on a SpectraMax Plus reader. Slope from linear regression of initial increase in absorbance at 405 nm is used for calculation of apparent binding constants.
It is assumed that protease and inhibitor react according to the equation: E+I ? EI
Where E is the protease, I is the inhibitor and EI is the protease-inhibitor complex. […] The concentration of enzyme-inhibitor in the detergent solution is then given by:
where Etot is the total protease concentration ([Etot]=[E]+[EI]), Itot is the total inhibitor concentration ([Itot]=[I]+[EI]), and Ki is the equilibrium binding constant for the reaction. The measured slopes V are given by:
where V0 is the slope without inhibitor added. To calculate apparent binding constant Ki least square fitting of measured slopes at various inhibitor concentrations to this equation is performed with Ki and V0 as variables.
The Ki for the parent protease and for each variant was calculated as described above
Having the Ki for each variant, it is possible to calculate the effect of a single mutation, if data are available for at least two variants that differ only by that mutation. In this case, the relative Ki for the mutation is calculated:
[formula] A lower Ki is desirable, as a satisfactory inhibition can be obtained at a lower inhibitor concentration, so beneficial mutations have a relative Ki<1.0 The following table show such relative Kimutation. Each row show: • a mutation (column 1: “Mutation”) • a protease variant (relative to SEQ ID NO: 2) that comprise the mutation from column 1 (column 2: “Variant with the mutation”) • another protease variant (relative to SEQ ID NO: 2), that differs from the one in column 2 only by not having the mutation in column 1 (column 3: “Variant without the mutation”) • Relative Kimutation for the mutation in column 1, in the context of the variant in column 3, measured in Model B detergent (column 4: “inhibitor binding in Model B”) • Relative Kimutation for the mutation in column 1, in the context of the variant in column 3, measured in Tris buffer at pH 8 (column 5: “inhibitor binding in Tris buffer pH 8”)
Ki were calculated as shown in Example 3. The Improvement Factor (IF) or Relative

Row | Molecule | Inhibitor-binding relative Kimutation, inhibitor binding in Model B
1 | B1 | 0.24
2 | B2 | 0.81
3 | B3 | 0.51
4 | B4 | 0.53
5 | B5 | 0.75
6 | B6 | 0.50 and 0.49
7 | B7 | 0.18
8 | B8 | 0.30
9 | B9 | 0.31 and 0.27
10 | B10 | 0.37
